Experimental data taken from the DeepSol protein solubility set.

Assay: soluble on expression in E. coli; label from the status in PepcDB or PDB records

Sequence	soluble on expression in E. coli
MGSDKIHHHHHHMKLVKTGILPLDTQLGGGMPAGSVVSVFEEPGAGADVLSYHFTVEGATHGENVFYLATDDSSEEIREYINLYFDLDEAVWENITLLSLRASMQQEEGEKDAKDFLRKTIYDPIGGIKTILSHEEFERVVINNFTYFLANYPIEDVIALIDVLSNYAKRNQSVVMLLVTKGMFDPRTETTVKHYSDGVIELTLKEVENEVQRRLKVVKFKGILVPKAILRYELTDKGIKMESVMRVL	not soluble
MGSDKIHHHHHHMKNAAISDSTLVSQYIQGNEEAFAELIKRHKSKVYSTIYLIVKDRYLAEDLLQDVFIKVIHKMKGGQYNDEGKFLPWVVRIAHNLAIDYFRRNKRYPTIVMDEGMNIFNSLNFSEDSTESIQIKGENEALIRSLIHKLPESQREVVLMRHFSDMSFQEIADSTGVSINTALGRMRYALINLRKELTKQPKPIVYDKNVYPK	not soluble
MGSDKIHHHHHHMKNKIGSFVIADPNKCTGCRACEVACFTMHNQHNNVGYTVGTVDIPVIPRLYLVKGDNFCMPIQCRHCEDAPCLNSCPQKAIVKENNIMSVNEEKCIGCKTCLLACPFGAIDLLPQYEDGKEVEQVILDENKKIAYKCDLCKDNEKIACISACPQKALKLVTPIDDKKAKNRQAALSLLLTNK	not soluble
MGSDKIHHHHHHMKNLPSLKNLYYLVHLHQEQNFNRAAKMCFVSQSTLSSGIQNLEEQLGYQLIERDHKSFMFTAIGEEVVERARNILTNVDDLVELVKNQGEPMTGEIRLGCIPTIAPFLLSRVVKLCQQDYPKLSLLLKEDTTERLLDALAKGELDLLILALPVDTSGFHSMKVGIDPFKMVMHKEVSQQFLQPIDYQKMPDESIFLLQAEHCITGHAITACQLGDSAKINPFAATSLHTLVQMVNSKLGTTFLPQMAIDTGILTDTDLVAMDPPGEAPYRDIGLVWRQTTSRISTFRTLGLAIQQKLLAQSLPS	not soluble
MGSDKIHHHHHHMKNNTGYIIGAYPCAPSFHQKSEEEETEFWRQLSDTPDIRGLEQPCLEHLHPLGDEWLLRHTPGNWQIVVTAIMETMRRRSENGGFGLASSDEEQRKACVEYYRHLYQKINKINGNNTGKVIALELHAAPLAGNPNVAQATDAFARSLKEIANWDWSCDLVLEHCDAMTGPAPRKGFLPLVNVLETIADYDISVCINWARSAIEGRDTSLPLIHTQQAKQAGKLGALMFSGTTLDGEYGEWQDLHAPFAPFCPQSLMTEKHVKELITAAAPELLQFTGIKLLEINASADINHRINILRDGINMMKKATRR	not soluble
MGSDKIHHHHHHMKNSPLNGLNGLKAFLETKPKEYHKFDPSRFIQIYKDFKNAFFEIQAKVIHVVGTNGKGSTGRFLTLLLADQNFKVLHFTSPHVFEFRERFFLNGSVVGESVLENAHQQLQSHAFSSACSYFEYATLLAVMLAKDCDYLVLEAGLGGEFDSTNALKKTLSVFTPIDYDHKEFLGDSLESIAQTKLKAMGSLSIIAPQQELVLNAAQKIAKEKHAKLIVVQNEISKGVRDYIERYHLARFLAMNLEVALKAFETLLPCNKQEVLKNLKPLNLIGRCELLSPNILIDVGHNPHSAKALKEEIKRIFNAKIILIYNCYQDKDAFLVLEILKPVIKKVLILELHEERVIKLEKLKGILETLGLEYALFEDVEENENYLVYGSFLVANAFYKRYQEKRD	not soluble
MGSDKIHHHHHHMKNTVAFKTITGRDAVYKAYDAFLGNMGIPHEEVNVDTRFGKAFVIAAGKKDAPVLVLLHGSGINSVMWIKDMEKYSEHYRVYAVDLQGEPGKSDGKQLSFEGSDFDNWLHDVFAGLSVEKASIAGISLGAWLALKFAIANPQMVDKLVLLCPAGVGPQKTSFAYVSLFHMLLWGEKGVERLFRKVNGGKPIPQEIMDYQKLLGNNFNFRREQVPLFSDAELTQLTIPSILFVGQKDVMFHSLKTAQRYRNLVPDAKVIVLREAGHTLIGLVDDILEFLQN	not soluble
MGSDKIHHHHHHMKPEIALNLWQLLWQEYSARVNHARTYQQMITTAGGTVANDHIAFRSLRLLVDSPQGEVNLGIDYLAQFAEALGYVAAGEYNFAQTHLYARYYRHPQQEEFNLPKLFISELIVDELPANIAQLISKTVSAIPHQLASPVTLLKKDAEIETIAKQLQQVFTRPWLPPRRSVVEEVNQVTQYGAWVLLHGYGVNHFTGYVNGQNTPEYPDIDTTASGLAHLGVPMKAEIEGNVACGLRQTATQAVTEMVTVLDDNSGVEIQIPWTYAYYEIAQRYPVEVEPGKQILFDAFLGSNAQQLFEMTRLSK	not soluble
MGSDKIHHHHHHMKPHTLLIVDDDDTVAEMLELVLRGAGYEVRRAASGEEALQQIYKNLPDALICDVLLPGIDGYTLCKRVRQHPLTKTLPILMLTAQGDISAKIAGFEAGANDYLAKPFEPQELVYRVKNILARTTIETPTTPVQRGKVITVFGAKGGVGKTTIAVSVALALRLRSRRRVVIVDADLTFGDVAVHLNIAPTRSIIDIVRSGDEIEQEMVKQVLLSHPSGLQALLAPPRPEEAELVSAEHMTRILDLLAVNADYVVVDCQTSYDDRTLSVFDRTDHVLLVITPEIGPLKNTSLFLSLANQLGIDPRAISIVLNRSNSGVGIGVNEIERVLRRKINYHVMSGGQPVVTAVNRGTPLILEQPKHPFVQQILYLADQMMKQLDTNQNVQTDTVTR	not soluble
MGSDKIHHHHHHMKPQLIASCWTSAGDAAPDRDDLSSPVAIDERIALVAETGWAGIGLVHADLIKARDTIGYEELRRRIHAAGIEIIEVEFLNGWWATGAERQESDAVRADLFAAAQALGSPHIKVGAGEGTNGVVPIAHMASAFTDLAAEAEAHGVKLALEATPFSHLKTIYDALEVVSHSDSPSAGLMVDIWHTAKIGIPNDELWRNIPLSKVNAVEVDDGFIDTPIDLFDDSTNRRAYCGEGEFDPASFIRGAIDAGWTGAYGVEIISAEHRSLPVKEGLQRAFDTTIAAFEQAARLAPSTN	not soluble
MGSDKIHHHHHHMKQAYIFDMDGTLFQTNRILGHALEDAFDFLRMNGRWTGKTPLAEYQTIMGVSLPEVWQTLLPGHSDEERALVDRIFQDALIRHIEQGQGALYSGAEATLQALKETGHPLYIASNGWKVYLTAIVRQYGLNRWLDGVYSIEDVASSQKSDLVAYILSEHQLTDMVVVGDRISDFQAAKVNRLPAVGCRFDFSNEAELEQADVIIDDLRELFQIDLKAVTK	not soluble
MGSDKIHHHHHHMKQDRRKLFVLDTNVLLHEPLAIYSFKEHDVVIPMTVLEELDNIKDRKHDISRDARVAIRALEDILGGPTTPEQILKGVPLPSREGHLDVAGSLSIFPDHQVDFIAGALPGDNNDNLIINVALHLQKVHKPRTVVLVTKDINMRLKAKGAGIEKVEDYRTDQLIDDIRFLAKGFYQFEGDFWSKLDKVTTERQGKHTIHHVPIAALGKEAFYLNQYLLDDEANFCGRITGKTDTQLDIIDLGRDRLNHIEAWGIKPKNIYQGMALNALLDPEIDLVILTGPAGCGKTLLAIAAALELVVERKRYDKIIVTRNTPEIAESIGFLPGTEEEKMAPWLAAITDTLEVLHKNDVNPSGSMNYIMEKANIQFKSINFMRGRSIQNSVVLLDECQNLTASQIKTMITRMGEGTKLICCGNLSQIDSTYLTAVTSGLTYIVERFKDFEGSANVYLNGVVRSRLAEYAEEHL	not soluble
MGSDKIHHHHHHMKQFQIVGIGNALVDVLSHCDDAFLAENGIAKGIMQLIDMGRAVDLYGRIGPAQEISGGSAANTIAGIAQLGGRTAYVGKVCDDQLGAIFAHDLRAQGAVYETPMAPKGGAQETGRCIILVSPDGERSMNTCLGWSEFLTPDDIDEAQMASTEWIYLEGYRFDGPESHAAFAKAIAACRGAGGRVSLTLSDPFCVERHRDAFRRMIREDVDLLFANRAEILSMYRTEDFGAALKAAAAEVAIVACTESEKGAHILADGQHWHVPALPTQIVDATGAGDLFAGAFLWGLTHGHGYETAGRMGCIAASEVISHLGARPEADLRALFRAQGVL	not soluble
MGSDKIHHHHHHMKRAYAMPLTNPSFPPGPYRFFDREYIIITYRTTREALEAVVPAPLEIDEPLVKYEFIRMPDSTGFGDYTETGQVIPVKYKGQHGGYVHSMYLDDDAPIAGGRELWGFPKKLANPKIVHEGEVIVGTLHYGSVLCATGTMGYKHREADHDSVLASLAAPNFLIKIIPHVDGGPRICELVRYYLTDITLKEAWTAPAALDLRPHVMADVAKLPVLDIISAVHFKADLTLGLGEVVHDYLSDHNRLATSTTQPEKIRA	not soluble
MGSDKIHHHHHHMKRKTLPKLLYADAKGNIFDHPHLCMAGMSGSEAVLPESVELIPLPEGSRLFTIPDTPPVAWDEQQRKFVTVASVREGRRPMPVQAVSAFMAPGYVRLLLPACDYSRKKVHLPLWSYTAVGWDEERDCFVVAASRVDTNQNWNPCNYDDRKLDPLVRQRLAEMPHNRLLEQLARCAVDYHCFAAKNLFFRRWEAPLPTSPACNSRCLGCISLQPSDCCPANHERIGFVPTPEEIVELALPHLLEAPEPIVSYGQGCEGDPIMQADTVAEATRRLKAATSRGTVNFNSNGSFPDRIAMLCDAGMDSMRFSMNSVREEVYDRYYRPVGYRFAEVKESVRLAGERGLFTMINYLVSPGVSDSADEVEALLRFIGETGVKMIQMRNLSIDPDFYNKRMGATGRGIGMYRMLERVKREFPHIQYGYYNRTRENFFPAGYEKGWPIR	not soluble
MGSDKIHHHHHHMKRRDFLITSAAALSFLLSGCAIGDRVVEEPLTPKSNPPRKSVVYVLKTERREEAVSKLMQNFSDFEGSTVGLKANYNSADPFPASTHPKTLSAIVDVLKEQKAEVFMAERSGMGNTSAVLKTMGILDLAREKGFTVIDLDSYDGWVLHQPEDSHWKKGYPFADIFLTVDSVIQTCCLKTHRFGGHFTMSLKNSVGMVARRWKGHDYMSELHTSPHMRKMIAEINVSYSPKIVIMDAIKGFSHGGPERGTVIEPGLMIASNDRVAIDAVGVAILRIHGTTPEVSKGSVFEQEQIARAIEIGLSSGEFEIIPANDDAEKICSEIEAVLWG	not soluble
MGSDKIHHHHHHMKRSGKVYIIGAGPGEEELITLKAIRKMKECTAVLYDRLVGQGILKYLNEKCEIYYCGKEPGCHYKTQDEINEMIIKLAKEGHIVGRIKGGDPYIFGRGGEEGLSLLKENIEFEVISGVTSPVAVLNYAGIPVTHRGIARSFHVFTAKTANDDSINFSAAAKIDGTLIFLMGYRQLNDITRKLIENGMDSKMPCAVVMRGTTSLQKKVIGNLSDIKEKCDNANMTSPCIIVVGKVVGFNQQLNWYEKKPLFGRNICITRSKNQSKTMREELLDLGAEVTEVHSIEIENTASNLEEYINKISEYDYIILTSVNAVEVLFDYLASKDYDVRKVRAKFAVIGNATKEALKKRGIVPEIVSRKHNGEGLFDEIRGYLKKDDKIFIPRSENSRKYIKEQLVSLGLSVDECFIYRTVPGKLYDKAAFENADTIVFTSPSTVKNMIALFGEKNIKKKSIIAIGPITGRELGKINAEYSTCSECSVDAIIRECLNSDK	not soluble
MGSDKIHHHHHHMKRVSVVILNWNGVDMLRKFIPSVMDNSVGEGIEICVADNASSDGSLEMLRSEFPVVRLIELDQNYGFAEGYNRALEQVDAEYVVLLNSDVEVTPHWLEPLLDYMDTHSGTVACQPKLLSWHNKEYFEYAGASGGFIDRYGYPFCRGRIFDVVEKDCGQYDTITEVMWVTGAALFIRLADYREVGGLDGHFFAHMEEIDLCWRLRSRGKKLVCIPQSVVYHVGGATLKKENPRKTFLNFRNNLLMLYKNLPDKELEHVLFIRGILDRVAALVFYLKKDRANARAVMQARREFEDIRYSFAASRIENMMKSTDEIIPERTHFSIVMKYYLLGKKHFSQLKLF	not soluble
